Laboratory results: US12344637B2, “Virus-inspired compositions and methods of redirecting preexisting immune responses using the same for treatment of cancer” (priority 2020, dated 2025)

Legend:
[1] = test system: MC38 cells; assay: OVA peptide loading in the presence of furin inhibitor; format: cell-based, murine; conditions: IRC 2.5 μg/mL
Method: (Millipore-Sigma, St. Louis, MO). This furin inhibitor binds irreversibly to the catalytic site of furin, blocking all furin protease activity.
Briefly, 2×10^5 MC38 cells (murine colon adenocarcinoma, #ENH204-FP, Kerafast, Inc., Boston MA) were seeded in a FACs tube and then incubated with either 0.5 μM, […], or 50 μM furin inhibitor dissolved in DMSO at total final sample volume of 200 μL. Control samples containing no inhibitor were prepared the same way with the same volume equivalent of DMSO. The samples were incubated for fifteen minutes in a tissue culture incubator at 37° C., 5% CO2. Then, 2.5 μg/mL of OVA-conjugated MPV.10.34.d IRC was added to all samples and the samples were incubated in a tissue culture incubator at 37° C., 5% CO2. Samples were then washed twice with 2 to 3 mL FACS buffer and then stained with PE-conjugated-mouse anti-mouse MHC I bounded with OVA (SIINFEKL, SEQ ID NO:95) monoclonal antibody (Biolegend, Cat #141604, San Diego, CA) for 30 minutes at 4° C. Following this, samples were washed once with 3 mL FACS buffer then the cells were resuspended in 250 μL of FACS buffer before being analyzed by a CytoFLEX flow cytometer. (Beckman Coulter Life Sciences, Brea, CA, US).

[2] = HPV16 L1 deletion mutants; cited from earlier work
[3] = test system: MC38 cells; assay: In vitro cell binding assay (flow cytometry), MC38; format: cell-based, murine; conditions: MC38, 1 h 37° C.
Method: (§1) To assess whether IRC bind to tumor cells, an in vitro cell binding assay was conducted. Specifically, both MPV.10.34.d capsid backbones (unconjugated) as well as different conjugated IRC (human CMV pp65, murine E7, and murine OVA peptide) were examined.
(§2) Briefly, 2×10^5 MC38 cells (murine colon adenocarcinoma, #ENH204-FP Kerafast, Inc., Boston MA) or pgsA-745 cells (Chinese hamster ovary cell mutant deficient in xylosyltransferase (UDP-D-xylose:serine-1,3-D-xylosyltransferase, ATCC CRL-2242) in which heparin sulfate proteoglycan (HSPG) expression is knocked out, were seeded overnight. The next day, the cells were treated with human CMV pp65, murine HPV16 E7, and murine OVA peptide, as well as the MPV.10.34.d capsid backbone for one hour at 37° C. Cells were then washed twice with 2 to 3 mL of a fluorescence activated cell sorting (FACS) buffer (1% bovine serum albumin in PBS) and then stained with 1 mL of rabbit anti-musPsV serum antibodies for 30 minutes at 4° C. Following this, samples were washed once with 3 mL FACS buffer and stained with 0.5 mL of donkey anti-rabbit IgG-PE antibody (Biolegend, San Diego, CA) for 30 min at 4° C. in the dark. Finally, samples were washed once more with 3 mL FACS buffer and then resuspended in […] of FACS buffer before being analyzed by a CytoFLEX flow cytometer (Beckman Coulter Life Sciences, Brea, CA, US).

[4] = test system: MPV.A4 monoclonal antibody; assay: ELISA with MPV.A4 conformational monoclonal antibody; format: binding
Method: The MPV.A4 antibody is a conformational antibody that specifically binds to MPV L1 in the form of T=1 or T=7 capsid backbone structure. This antibody will not bind to denatured or monomeric MPV L1. (Hafenstein et al., 2020, “Atomic Resolution CRYOEM structure of Mouse Papillomavirus,” International Papillomavirus Conference, Jul. 20-24, 2020). To determine whether MPV.10.34.d undergoing the steps in Example 1 or Example 4 yields a T=1 capsid backbone, ELISA was performed on these samples with the MPV.A4 monoclonal antibody.
Samples from Example 1 and Example 4 of equal concentrations (starting concentration of 1000 ng/well) were subjected to ELISA. To ensure that both soluble and refolded MPV.10.34.d were equally bound to the ELISA plate (Nunc Maxisorp, ThermoFisher Scientific, Waltham, MA, US), both samples were first buffer exchanged into either 50 mM NaPO4, 450 mM NaCl at pH 6 or pH 7. […] Based on this, a total of four sample conditions were two-fold serially diluted and subjected to ELISA with the MPV.A4 monoclonal antibody.
Briefly, eight different amounts of protein (7.8 ng to 1 μg) for each sample under both pH conditions (into either 50 mM NaPO4, 450 mM NaCl at pH 6 or pH 7) were first added to the ELISA plate and the plate was stored at 4° C. […] The absorbance of the sample plates were read at 450 nm and 620 nm with a plate reader (BioTek, Winooski, VT, US).

[5] = Transmission electron microscopy (TEM) size and structure; format: physicochemical; conditions: purified refolded capsid backbone
Method: TEM analysis was also employed to obtain further visual confirmation of the structure and size of the refolded proteins. Samples (10 μL) were adsorbed to glow discharged (EMS GloQube) carbon coated 400 mesh copper grids (EMS), by floatation for 2 min. Grids were quickly blotted and then rinsed in 3 drops (1 min each) of TBS. Grids were negatively stained in 2 consecutive drops of 1% uranyl acetate with tylose (1% UAT, double filtered, 0.22 μm filter), blotted then quickly aspirated to obtain a thin layer of stain covering the sample. Grids were imaged on a Phillips CM-120 TEM operating at 80 kV with an AMT XR80 CCD (8 megapixel).

[6] = ELISA of anti-MPV.10.34.d IRC sera; format: binding, mice; conditions: serum from 1:100, two-fold dilutions
Method: (§3) Antibodies against wild type MPV were generated as follows: New Zealand white rabbits (n=3) were administered three intra-muscular vaccinations of 50 μg of wild type mouse papillomavirus particles per dose. Rabbits were vaccinated at months 0, 1, and 2. After two weeks post final vaccination, rabbits were bled to obtain the anti-MPV sera. Antibodies against MPV.10.34.d IRC were obtained as follows: naïve 6 to 8 week old C57/BL6 mice (n=10) were injected systemically with two doses of 150 μg of E7-conjugated MPV.10.34.d over a period of 48 hours. After 48 hours, the mice were bled to obtain the anti-MPV.10.34.d IRC sera.
(§4) Specificity of anti-MPV.10.34.d IRC sera and anti-MPV sera to both MPV.10.34.d capsid backbone and MPV.10.34.d IRC was examined by ELISA. The assays were performed as described in Example 5 with the following differences: serum samples were tested at a 1:100 dilution factor and two-fold serial dilutions. Goat anti-mouse IgG-HRP secondary antibody was used in the ELISA (1:7000). Binding of anti-MPV.10.34.d IRC sera (FIG. 31) and anti-MPV scrum (data not shown) to both MPV.10.34.d capsid backbone (FIG. 31A) and MPV.10.34.d IRC (FIG. 31B) was observed.

[7] = ELISA of anti-MPV sera; format: binding, rabbits; conditions: data not shown
Method: as §3, §4

[8] = test system: pgsA-745 cells; assay: In vitro cell binding assay (flow cytometry), HSPG knock-out cells; format: cell-based, Chinese hamster; conditions: pgsA-745, 1 h 37° C.
Method: as §1, §2

[9] = test system: HCT116; assay: In vitro cytotoxicity assay with human CMV T cells, HCT116; format: cell-based; conditions: HCT116, 2.5 μg/mL, E:T 10:1, 24 hrs
Method: (§5) In these experiments, CD8+ T cell responses to CMV peptides were tested in three different human tumor cell lines, including HCT116, OVCAR3, and MCF7. All three of these human tumor cell lines are HLA-A*0201 positive.
(§6) In Vitro Cytotoxicity Assays. […], human colon cancer cells, MCF7, human breast cancer cells, and OVCAR3, human ovarian cancer cells (all from ATCC, Manassas, VA, US) were seeded overnight at 0.01 to 0.2×10^6 per well per 100 μL per 96 well plate. The next day (about 20 to 22 hrs later), each cell line was incubated for one hour at 37° C. under the following conditions: (1) CMV peptide at a final concentration of 1 μg/mL (positive control), (2) MPV.10.34.d at a final concentration of 2.5 μg/mL (negative control), (3) CMV-conjugated MPV.10.34.d IRC at a final concentration of 2.5 μg/mL, (4) CMV-conjugated HPV16 IRC at a final concentration of 2.5 μg/mL, and (5) no antigen (negative control). After 1 hour, the cells were washed vigorously with 200 μL of media for three times to remove non-specific binding. […] Cell viability was measured after co-culturing. Cell viability was measured with CELLTITER-GLO® (Promega, Madison, WI, US). […] The amount of ATP generated from tumor cells was quantified according to manufacturer protocols.

[10] = test system: OVCAR3; assay: In vitro cytotoxicity assay with human CMV T cells, OVCAR3; format: cell-based; conditions: OVCAR3, 2.5 μg/mL, E:T 10:1, 24 hrs
Method: as §5, §6

[11] = test system: MCF7; assay: In vitro cytotoxicity assay with human CMV T cells, MCF7; format: cell-based; conditions: MCF7, 2.5 μg/mL, E:T 10:1, 24 hrs
Method: as §5, §6

## decanoyl-RVKR-CMKa [furin inhibitor, reference compound]
[1]; furin inhibitor 0.5 μM
  OVA peptide loading: prevents OVA-conjugated MPV.10.34.d IRCs from loading OVA epitopes
[1]; furin inhibitor 5 μM
  OVA peptide loading: prevents OVA-conjugated MPV.10.34.d IRCs from loading OVA epitopes
[1]; furin inhibitor 50 μM
  OVA peptide loading: prevents OVA-conjugated MPV.10.34.d IRCs from loading OVA epitopes

## ΔN = 0: HPV16 L1 protein without N-terminal deletion (Chen et al., 2000)
[2]
  Apparent Diameter of Assembled Particle (Å): 600 Å

B1: MPV.10.34.d capsid backbone (protein)
chain: MLYLPPTTPVAKVQSTDEYVYPTSLFCHAHTDRLLTVGHPFFSVIDNDKVTVPKVSGNQYRVFRLKFPDPNKFALPQKDFYDPEKERLVWRLRGLEIGRGGPLGIGTTGHPLFNKLGDTENPNKYQQGSKDNRQNTSMDPKQTQLFIVGCEPPTGEHWDVAKPCGALEKGDCPPIQLVNSVIEDGDMCDIGFGNMNFKELQQDRSGVPLDIVSTRCKWPDFLKMTNEAYGDKMFFFGRREQVYARHFFTRNGSVGEPIPNSVSPSDFYYAPDSTQDQKTLAPSVYFGTPSGSLVSSDGQLFNRPFWLQRAQGNNNGVCWHNELFVTVVDNTRNTNFTISQQTNTPNPDTYDSTNFKNYLRHVEQFELSLIAQLCKVPLDPGVLAHINTMNPTILENWNLGFVPPKEREDPYKGLIFWEVDLTERFSQDLDQFALGRKFLYQ
[3]
  binding to tumor cells (peak shift): exhibited specificity for tumor cells
[4]; refolded from IBs (Example 1)
  recognition by MPV.A4 conformational monoclonal antibody: recognized
[4]; soluble (Example 4), pH 6 or pH 7
  recognition by MPV.A4 conformational monoclonal antibody: recognized
[5]
  diameter (TEM): ~30 nm
[6]
  binding of anti-MPV.10.34.d IRC sera (ELISA): Binding
[6]; listed as MPV.10.34.d capsid backbones
  binding of anti-MPV.10.34.d IRC sera (ELISA): specifically recognize and bind
[7]
  binding of anti-MPV serum (ELISA): Binding
[8]
  binding to cells lacking HSPG expression: no binding
[9]
  redirection of CMV pp65-specific CD8+ T-cells to kill tumor cells: no background tumor killing
[10]
  redirection of CMV pp65-specific CD8+ T-cells to kill tumor cells: no background tumor killing
[11]
  redirection of CMV pp65-specific CD8+ T-cells to kill tumor cells: no background tumor killing
